T1: Rat cKIT D1-5, C-terminal mFc (rat)
T1 construct: The whole entry is rat cKIT ECD residues 25-526, a linker and a mouse Fc tag; also called rat cKIT-mFc
T1 chain: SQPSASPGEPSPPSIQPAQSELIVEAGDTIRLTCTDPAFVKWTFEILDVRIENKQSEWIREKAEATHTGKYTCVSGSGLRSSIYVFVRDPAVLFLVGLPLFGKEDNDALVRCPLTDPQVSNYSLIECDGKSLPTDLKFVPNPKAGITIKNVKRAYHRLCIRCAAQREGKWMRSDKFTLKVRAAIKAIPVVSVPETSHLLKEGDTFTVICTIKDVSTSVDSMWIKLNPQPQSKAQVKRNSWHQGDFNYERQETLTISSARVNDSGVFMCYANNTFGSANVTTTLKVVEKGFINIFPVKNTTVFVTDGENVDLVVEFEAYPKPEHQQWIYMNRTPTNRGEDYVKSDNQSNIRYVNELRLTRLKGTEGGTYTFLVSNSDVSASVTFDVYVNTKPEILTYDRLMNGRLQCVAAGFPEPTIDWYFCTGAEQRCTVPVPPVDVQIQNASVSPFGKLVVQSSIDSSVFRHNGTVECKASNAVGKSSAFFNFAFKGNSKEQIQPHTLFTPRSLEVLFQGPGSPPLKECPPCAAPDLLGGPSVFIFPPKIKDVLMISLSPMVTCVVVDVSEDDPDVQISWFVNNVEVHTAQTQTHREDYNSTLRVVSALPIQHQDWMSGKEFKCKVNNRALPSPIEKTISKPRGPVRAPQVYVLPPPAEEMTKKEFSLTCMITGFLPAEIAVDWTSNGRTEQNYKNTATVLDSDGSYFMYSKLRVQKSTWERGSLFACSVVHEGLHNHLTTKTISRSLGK

T2: Mouse cKIT ECD, C-terminal 6x His (Sino Biological Inc, catalog number 50530-M08H) (mouse, UniProt P05532 25-527)
T2 construct: extracellular domain; Bought protein; not shown: C-terminal 6x His tag
T2 sequence (looked up): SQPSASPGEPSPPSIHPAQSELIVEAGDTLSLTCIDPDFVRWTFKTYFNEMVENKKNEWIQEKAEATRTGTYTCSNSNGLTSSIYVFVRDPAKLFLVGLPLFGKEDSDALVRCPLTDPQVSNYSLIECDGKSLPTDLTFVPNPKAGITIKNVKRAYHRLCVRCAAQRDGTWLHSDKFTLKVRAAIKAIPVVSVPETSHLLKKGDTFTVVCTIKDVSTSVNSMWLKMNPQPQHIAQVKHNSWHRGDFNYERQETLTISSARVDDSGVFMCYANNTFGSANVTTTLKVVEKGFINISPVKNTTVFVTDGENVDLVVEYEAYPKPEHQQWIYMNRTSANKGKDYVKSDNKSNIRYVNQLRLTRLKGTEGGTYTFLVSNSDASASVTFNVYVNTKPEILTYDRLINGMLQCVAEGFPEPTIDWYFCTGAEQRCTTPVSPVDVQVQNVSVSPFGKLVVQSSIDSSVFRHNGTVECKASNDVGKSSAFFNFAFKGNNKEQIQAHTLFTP

T3: Cynomolgus monkey cKIT D1-5 (cyno cKIT ECD, C-terminal 6x His) (cynomolgus monkey, UniProt P10721 25-520 (human entry))
T3 construct: The signal peptide is not part of the protein in the assay; The entry includes the C-terminal His tag; also called cynomolgus monkey ECD
T3 chain: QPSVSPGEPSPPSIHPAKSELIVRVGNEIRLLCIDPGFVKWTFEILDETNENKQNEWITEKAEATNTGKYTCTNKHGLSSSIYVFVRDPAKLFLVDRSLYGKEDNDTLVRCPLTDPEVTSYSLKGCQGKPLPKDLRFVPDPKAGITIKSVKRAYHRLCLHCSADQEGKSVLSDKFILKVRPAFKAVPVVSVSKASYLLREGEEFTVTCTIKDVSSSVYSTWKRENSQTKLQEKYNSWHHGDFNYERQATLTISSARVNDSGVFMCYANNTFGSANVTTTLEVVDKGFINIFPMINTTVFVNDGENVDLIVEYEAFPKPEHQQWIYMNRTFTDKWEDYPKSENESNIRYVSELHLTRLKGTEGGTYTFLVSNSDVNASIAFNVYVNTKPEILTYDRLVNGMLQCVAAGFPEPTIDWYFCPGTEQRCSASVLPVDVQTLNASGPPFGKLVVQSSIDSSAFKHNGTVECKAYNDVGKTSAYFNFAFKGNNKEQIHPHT


How the values were obtained:
[1] = target: T1, Rat cKIT D1-5, C-terminal mFc; assay: SPR (Biacore 2000): antibody captured by anti-human Fc, cKIT ECD in solution
Experimental: (§1) Affinity of the antibodies to cKIT species orthologues and also to cKIT was determined using SPR technology using a Biacore® 2000 instrument (GE Healthcare, Pittsburgh, Pa.) and with CM5 sensor chips.
(§2) Briefly, HBS-P (0.01 M HEPES, pH 7.4, 0.15 M NaCl, 0.005% Surfactant P20) supplemented with 2% Odyssey® blocking buffer (Li-Cor Biosciences, Lincoln, Nebr.) was used as the running buffer for all the experiments. The immobilization level and analyte interactions were measured by response unit (RU).
(§3) For kinetic measurements, the experiments were performed in which the antibodies were captured to the sensor chip surface via the immobilized anti-human Fc antibody and the ability of the cKIT proteins to bind in free solution was determined. […] 0.1-1 μg/ml of test antibodies were then injected at 10 μl/min for 1 minute. […] Subsequently, 3.125-50 nM of cKIT receptor extracellular domains (ECD) were diluted in a 2-fold series and injected at a flow rate of 40 μl/min for 3 min over both reference and test flow cells. Table of tested ECDs is listed below (Table 6). Dissociation of the binding was followed for 10 min. After each injection cycle, the chip surface was regenerated with 3 M MgCl₂ at 10 μl/min for 30 seconds.

[2] = target: T2, Mouse cKIT ECD, C-terminal 6x His (Sino …); assay: as above
Experimental: as §1, §2, §3

[3] = target: T4, Human cKIT D1-5 (human cKIT ECD, C-terminal 6x His) (human, UniProt P10721 26-524); assay: SPR (Biacore 2000): antibody captured by anti-human Fc on CM5, cKIT ECD in solution, 25 C, 1:1 fit
T4 construct: also called human cKIT-His
T4 sequence (P10721 other isoform, or with tags, fused parts or gaps limits assumed): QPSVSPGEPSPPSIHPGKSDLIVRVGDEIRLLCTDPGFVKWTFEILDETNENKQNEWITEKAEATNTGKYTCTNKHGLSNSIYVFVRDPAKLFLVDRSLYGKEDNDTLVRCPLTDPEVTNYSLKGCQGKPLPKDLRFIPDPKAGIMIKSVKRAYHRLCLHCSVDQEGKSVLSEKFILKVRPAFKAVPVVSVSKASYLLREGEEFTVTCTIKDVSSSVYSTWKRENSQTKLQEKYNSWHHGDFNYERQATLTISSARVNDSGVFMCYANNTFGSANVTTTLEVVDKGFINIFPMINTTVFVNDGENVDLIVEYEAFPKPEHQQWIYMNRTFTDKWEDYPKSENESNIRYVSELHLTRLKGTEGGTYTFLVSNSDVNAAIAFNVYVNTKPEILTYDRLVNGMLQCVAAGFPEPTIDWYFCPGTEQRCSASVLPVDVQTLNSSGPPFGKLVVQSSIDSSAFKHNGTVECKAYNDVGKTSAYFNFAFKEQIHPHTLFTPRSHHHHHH
Experimental: as §1, §2, §3

[4] = target: T3, Cynomolgus monkey cKIT D1-5 (cyno cKIT …); assay: as above
Experimental: as §1, §2, §3

[5] = target: T2, Mouse cKIT ECD, C-terminal 6x His (Sino …); assay: as above
Experimental: as §1, §2, §3

[6] = target: T5, Human cKIT D1-3 (ECD subdomains 1-3, ligand binding domain) (human, UniProt P10721 26-311); assay: ELISA on coated cKIT ECD subdomains
T5 construct: also called cKIT subdomains 1-3
T5 sequence (P10721 other isoform, or with tags, fused parts or gaps limits assumed): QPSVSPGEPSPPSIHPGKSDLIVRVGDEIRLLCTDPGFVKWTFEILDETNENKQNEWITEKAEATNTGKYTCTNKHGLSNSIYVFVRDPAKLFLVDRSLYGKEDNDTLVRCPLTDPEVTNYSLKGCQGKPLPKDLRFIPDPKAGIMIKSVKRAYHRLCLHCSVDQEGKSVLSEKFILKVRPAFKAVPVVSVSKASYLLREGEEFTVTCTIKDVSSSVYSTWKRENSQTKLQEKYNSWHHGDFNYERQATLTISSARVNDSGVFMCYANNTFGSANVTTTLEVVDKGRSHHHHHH

| Binder | binding result [1] | binding result [2] | Kd [3] [nM] | Kd [4] [nM] | Kd [5] [nM] | binding result [6] |
| --- | --- | --- | --- | --- | --- | --- |
| anti-cKIT antibody 9P3 (antibody, V domains shown, Hybridoma-derived mouse variable domains) VH: EVRLVESEGGLVQPRSSMKLSCTASGFTFSDYYMAWVRQVPEKGLEWVANINYDGSSTYYLDSLKSRFIISRDNAKNILYLQMSSLKSEDTATYYCARGDYYGTTYWYFDVWGTGTTVTVSS VL: DIQMTQTTSSLSASLGDRVTISCRASQDISNYLNWYQQKPDGTVKLLIYYTSRLQSGVPSRFSGSGSGTDYSLTISNLEQEDIATYFCQQGKKLWSFGGGTKLEIKR | no binding (tested: 3.125-50 nM ECD injected) | no binding (tested: 3.125-50 nM ECD injected) | 20 | – | – | – |
| NEG086 (antibody, human IgG1, kappa, V domains shown, Humanized, optimized variant of 9P3; human IgG1 kappa) VH: EVQLVESGGGLVQPGGSLRLSCAASGFTFSDYYMAWVRQAPGKGLEWVANINQIAGSTYYVDSVQGRFTISRDNAKNSLYLQMNSLRAEDTAVYYCARGDYYGTTYWYFDVWGQGTTVTVSS VL: DIQMTQSPSSLSASVGDRVTITCRASQSISSYLNWYQQKPGKAPKLLIYYTSRLQSGVPSRFSGSGSGTDFTLTISSLQPEDFATYYCQQGRRLWSFGGGTKVEIKR | no binding (tested: 3.125-50 nM ECD injected) | no binding (tested: 3.125-50 nM ECD injected) | 1.44 | 1.34 | – | – |
| NEG085 (antibody, human IgG1, kappa, V domains shown) VH: EVQLVESGGGLVQPGGSLRLSCAASGFAFSGYYMAWVRQAPGKGLEWVANINYPGSSTYYLDSVKGRFTISRDNAKNSLYLQMNSLRAEDTAVYYCARGDYYGTTYWYFDVWGQGTTVTVSS VL: DIQMTQSPSSLSASVGDRVTITCRASQSISSYLNWYQQKPGKAPKLLIYYTSRLQSGVPSRFSGSGSGTDFTLTISSLQPEDFATYYCQQGRRLWSFGGGTKVEIKR | no binding (tested: 3.125-50 nM ECD injected) | no binding (tested: 3.125-50 nM ECD injected) | 8.4 | 6.14 | – | – |
| NEG087 (antibody, human IgG1, kappa, V domains shown, Humanized, optimized variant of 9P3; human IgG1 kappa) VH: EVQLVESGGGLVQPGGSLRLSCAASGFTFSDYYMAWVRQAPGKGLEWVASINQNTGSTYYLDSVRGRFTISRDNAKNSLYLQMNSLRAEDTAVYYCARGDYYGTTYWYFDVWGQGTTVTVSS VL: DIQMTQSPSSLSASVGDRVTITCRASQSISSYLNWYQQKPGKAPKLLIYYTSRLQSGVPSRFSGSGSGTDFTLTISSLQPEDFATYYCQQGRRLWSFGGGTKVEIKR | no binding (tested: 3.125-50 nM ECD injected) | no binding (tested: 3.125-50 nM ECD injected) | 1.13 | 1.39 | – | – |
| 20376 (antibody, human IgG1, lambda, V domains shown) VH: QVQLVQSGAEVKKPGSSVKVSCKASGGTFSSYAISWVRQAPGQGLEWMGGIIPMSGRTTYAQKFQGRVTITADESTSTAYMELSSLRSEDTAVYYCARDYGPEAPDYGQSTSYFWYYAFDPWGQGTLVTVSS VL: DIELTQPPSVSVSPGQTASITCSGDNIPSYFVHWYQQKPGQAPVLVIYDDNDRPSGIPERFSGSNSGNTATLTISGTQAEDEADYYCSSWDQDTVVFGGGTKLTVLG | no binding (tested: 3.125-50 nM ECD injected) | – | 9.1 | 4.8 | 2.5 | – |
| 20507 (antibody, human IgG1, kappa, V domains shown, HuCAL-derived human IgG1 kappa) VH: QVQLVQSGAEVKKPGSSVKVSCKASGGTFSSYAISWVRQAPGQGLEWMGTIGPFEGQPRYAQKFQGRVTITADESTSTAYMELSSLRSEDTAVYYCARGGYISDFDVWGQGTLVTVSS VL: DIQMTQSPSSLSASVGDRVTITCRASQSISNYLAWYQQKPGKAPKLLIYDASSLQSGVPSRFSGSGSGTDFTLTISSLQPEDFATYYCQQYYYESITFGQGTKVEIKR | no binding (tested: 3.125-50 nM ECD injected) | no binding (tested: 3.125-50 nM ECD injected) | – | 0.56 | – | – |
| NEG027 (antibody, human IgG1, kappa, V domains shown, Humanized, optimized variant of 9P3; human IgG1 kappa) VH: EVQLVESGGGLVQPGGSLRLSCAASGFTFSDYYMAWVRQAPGKGLEWVASINQNTGSTYYLDSVRGRFTISRDNAKNSLYLQMNSLRAEDTAVYYCARGDYYGTTYWYFDVWGQGTTVTVSS VL: EIVMTQSPATLSLSPGERATLSCRASQDISNYLNWYQQKPGQAPRLLIYYTSRLQSGIPARFSGSGSGTDYTLTISSLEPEDFAVYYCQQGKKLWSFGGGTKVEIKR | no binding (tested: 3.125-50 nM ECD injected) | no binding (tested: 3.125-50 nM ECD injected) | 1.34 | – | – | – |
| NEG024 (antibody, human IgG1, kappa, V domains shown, Humanized, optimized variant of 9P3; human IgG1 kappa) VH: EVQLVESGGGLVQPGGSLRLSCAASGFTFSDYYMAWVRQAPGKGLEWVANINQIAGSTYYLDSVRGRFTISRDNAKNSLYLQMNSLRAEDTAVYYCARGDYYGTTYWYFDVWGQGTTVTVSS VL: EIVMTQSPATLSLSPGERATLSCRASQDISNYLNWYQQKPGQAPRLLIYYTSRLQSGIPARFSGSGSGTDYTLTISSLEPEDFAVYYCQQGKKLWSFGGGTKVEIKR | no binding (tested: 3.125-50 nM ECD injected) | no binding (tested: 3.125-50 nM ECD injected) | 1.31 | 1.15 | – | – |
| NEG026 (antibody, human IgG1, kappa, V domains shown, Humanized, optimized variant of 9P3; human IgG1 kappa) VH: EVQLVESGGGLVQPGGSLRLSCAASGFTFSDYYMAWVRQAPGKGLEWVANINQNTGSTYYVDSVQGRFTISRDNAKNSLYLQMNSLRAEDTAVYYCARGDYYGTTYWYFDVWGQGTTVTVSS VL: EIVMTQSPATLSLSPGERATLSCRASQDISNYLNWYQQKPGQAPRLLIYYTSRLQSGIPARFSGSGSGTDYTLTISSLEPEDFAVYYCQQGKKLWSFGGGTKVEIKR | no binding (tested: 3.125-50 nM ECD injected) | no binding (tested: 3.125-50 nM ECD injected) | – | – | – | binds |

From patent US20180193475A1 (Novartis, published 2018)
